Experimental data from patent publication US20210324359A1, “USE OF GRAM-NEGATIVE LYSIN-ANTIMICROBIAL PEPTIDE (AMP) POLYPEPTIDE CONSTRUCTS IN TREATING ENDOCARDITIS” (priority 2020, published 2021).

How the values were obtained:
[1] = test system: biofilms formed by P. aeruginosa strain ATCC 17646; conditions: strain ATCC 17646 biofilm
Description: (§1) Biofilms are then washed and treated with e.g., a 2-fold dilution series of the lysin in TSBg at e.g., 37° C. for 24 hours. After treatment, wells are washed, air-dried at e.g., 37° C. and stained with e.g., 0.05% crystal violet for 10 minutes.

P. aeruginosa isolates = experiment: MIC against a range of isolates in CAA + […] human serum (Table 11); assay type: cell-based, Pseudomonas aeruginosa
[2] = test system: Pseudomonas aeruginosa strain CFS-1292 (meropenem resistant); experiment: MIC in 25% CAA alone, with […] human serum or […] SURVANTA (Table 13); assay type: cell-based
Description: (§2) Materials and methods: MICs were determined by broth microdilution in media supplemented with human serum and pulmonary surfactant ([…]®; Myoderm Clinical Supplies). Minimal biofilm eradicating concentrations (MBECs) were determined using standard methods. […] Fluorescence microscopy was performed after LIVE/DEAD staining (ThermoFisher) and TEM was performed.

P. aeruginosa = experiment: MIC, modified CLSI broth microdilution in CAA medium without or with […] human serum (Table 4); assay type: cell-based, Pseudomonas aeruginosa; on CAA/HuS MIC: CAA supplemented with 2.5% human serum
From the text: 2015. […] Clinical and Laboratory Standards Institute, Wayne, Pa.

[3] = test system: carbapenem-resistant P. aeruginosa strains; experiment: Resensitization of carbapenem-resistant strains, combinations with imipenem or meropenem (Tables 18-22); assay type: cell-based, Pseudomonas aeruginosa; conditions: for FICI: isolate WC-452
Description: Such resensitization may be determined by combining the present lysins or lysin-AMP polypeptide constructs with an antibiotic in a checkerboard assay as described herein. Antibiotic-resistant bacteria, such as carbapenem-resistant P. aeruginosa, are added to the lysin or lysin-AMP polypeptide construct combination. […] See Clinical and Laboratory Standards Institute (CLSI), CLSI. […] M100 Performance Standards for Antimicrobial Susceptibility Testing; 29th Edition. Clinical and Laboratory Standards Institute, Wayne, Pa., which is herein incorporated by reference in its entirety.
Up to seven carbapenem-resistant isolates were assessed. […] See Clinical and Laboratory Standards Institute (CLSI), CLSI. […] M100 Performance Standards for Antimicrobial Susceptibility Testing; 29th Edition. Clinical and Laboratory Standards Institute, Wayne, Pa.

P. aeruginosa strains = experiment: Checkerboard synergy with meropenem in 25% CAA and […] human serum (Table 16); assay type: cell-based, Pseudomonas aeruginosa; conditions: for FICI value (Run #1), with meropenem / FICI value (Run #2), with meropenem: 25% CAA and […] human serum
[4] = test system: Pseudomonas aeruginosa strain CFS-1292 (meropenem resistant); conditions: strain CFS-1292; no added cations
Description: The activity of selected GN lysins and constructs in the presence of divalent cations was evaluated, and the impact of divalent cations at physiological concentrations was examined in the MIC assay format.

[5] = test system: P. aeruginosa strain WC-453; experiment: Time-kill assay in HEPES or CAA with 25% human serum (Tables 7, 8); assay type: cell-based, Pseudomonas aeruginosa
Description: Exponential phase bacteria were then pelleted and resuspended in 1/5 culture volume of 25 mM HEPES, pH 7.4 before a final adjustment to an optical density corresponding to a McFarland value of 0.5. […] All treatments were incubated at 37° C. with aeration. At time points before the addition of lysin (or buffer control) and at 1 hour and 3 hours intervals thereafter, culture samples were removed for quantitative plating on CAA agar plates.

[6] = test system: Pseudomonas aeruginosa biofilm; experiment: MBEC in CAA supplemented with […] human serum (Table 14); assay type: cell-based
Description: as §1, §2

[7] = test system: outer membrane of P. aeruginosa (CFS 1292); experiment: N-phenyl-1-napthylamine (NPN) uptake assay, outer membrane destabilization (Table 15); assay type: cell-based, Pseudomonas aeruginosa; conditions: NPN fluorescence, buffer = 100, lysin 100 μg/well
Description: The ability of gram-negative lysins to destabilize the outer membrane of P. aeruginosa was evaluated through the use of an N-phenyl-1-napthylamine (NPN) uptake assay. […] NPN was added to a final concentration of […]. […] Changes in fluorescence were recorded (excitation 1=350 nm; emission 1=420 nm) over two hours.

B1: GN351: lysin-AMP construct: TAGGTAGG linker and amurin peptide Ecp2 C-terminal to GN316 lysin (SEQ ID NO: 32) (protein)
chain: MAILKIGSKGLEVKNLQTSLNKIGFNLVADGIFGKATDNAVRAVQAGAGLVVDGIAGPKTMYAIRNAGESHQDHLTEADLIDAARELSVDLASIKAVNQVESRGTGFTKSGKIKTLFERHIMYKKLNAKFGQAKANALAQLYPTLVNAKAGGYTGGDAELERLHGAIAIDKDCAYESASYGLFQIMGFNCVICGYDNAEEMFNDFLTGERAQLMAFVKFIKADANLWKALKDKNWAEFARRYNGPAYAQNQYDTKLAAAYKSFSTAGGTAGGARSRRRMSKRSSRRSFRKYAKSHKKNFKARSMRGGIRL
[1]
  MBEC: 1 µg/mL
P. aeruginosa isolates; Tables 11 and 12
  activity against P. aeruginosa isolates in human serum or SURVANTA: active against a variety of P. aeruginosa isolates
P. aeruginosa isolates; strain CFS 1109 (ATCC 17646)
  MIC, CAA + […] Human Serum: 1 µg/mL
P. aeruginosa isolates; strain CFS 1292
  MIC, CAA + […] Human Serum: 1 µg/mL
P. aeruginosa isolates; strain CFS1539 (PA1)
  MIC, CAA + […] Human Serum: 0.5 µg/mL
P. aeruginosa isolates; strain CFS 1540 (PA2)
  MIC, CAA + […] Human Serum: 0.5 µg/mL
P. aeruginosa isolates; strain CFS 1541 (PA3)
  MIC, CAA + […] Human Serum: 0.5 µg/mL
P. aeruginosa isolates; strain CFS 1557 (PA19)
  MIC, CAA + […] Human Serum: 4 µg/mL
P. aeruginosa isolates; strain CFS 1558 (PA20)
  MIC, CAA + […] Human Serum: 1 µg/mL
P. aeruginosa isolates; strain CFS 1559 (PA21)
  MIC, CAA + […] Human Serum: 2 µg/mL
P. aeruginosa isolates; strain CFS 1560 (PA22)
  MIC, CAA + […] Human Serum: 2 µg/mL
P. aeruginosa isolates; strain CFS 1561 (PA23)
  MIC, CAA + […] Human Serum: 2 µg/mL
P. aeruginosa isolates; strain CFS 1562 (PA24)
  MIC, CAA + […] Human Serum: 2 µg/mL
P. aeruginosa isolates; strain CFS 1596 (PA26)
  MIC, CAA + […] Human Serum: 1 µg/mL
P. aeruginosa isolates; strain CFS 1597 (PA27)
  MIC, CAA + […] Human Serum: 0.5 µg/mL
P. aeruginosa isolates; strain CFS 1669 (PA41)
  MIC, CAA + […] Human Serum: 1 µg/mL
P. aeruginosa isolates; strain CFS 1674 (PA46)
  MIC, CAA + […] Human Serum: 1 µg/mL
P. aeruginosa isolates; strain CFS 1675 (PA47)
  MIC, CAA + […] Human Serum: 0.5 µg/mL
P. aeruginosa isolates; strain CFS 1766 (ATCC 27853)
  MIC, CAA + […] Human Serum: 2 µg/mL
[2]
  MIC in […] Survanta: 4 µg/mL
  MIC in human serum ([…]) in CAA: 0.0625 µg/mL
  activity in human serum and pulmonary surfactant: active in human serum and pulmonary surfactant
[2]; media alone
  25% CAA MIC: 1
P. aeruginosa; CAA medium, no human serum
  CAA MIC: 8000 µg/mL
P. aeruginosa; CAA supplemented with […] human serum
  CAA/HuS MIC: 125 µg/mL
[3]; imipenem (IPM) and meropenem (MEM), carbapenem-resistant isolates
  resensitization to carbapenems in synergistic combinations: reductions of IPM and MEM MICS to below breakpoint values
[3]; lysin + imipenem
  FICI: 0.156
[3]; lysin + meropenem
  FICI: 0.188
[3]; vs. WC-452 (Table 22)
  Antibiotic MIC / Lysin MIC, Alone: 1
P. aeruginosa strains; FICI less than or equal to 0.5 = potent synergy
  synergy with meropenem: exhibited synergy with meropenem
P. aeruginosa strains; strain CFS 1292
  FICI value (Run #1), with meropenem: 0.1875
  FICI value (Run #2), with meropenem: 0.219
P. aeruginosa strains; strain CFS 1557 (PA19)
  FICI value (Run #1), with meropenem: 0.25
  FICI value (Run #2), with meropenem: 0.292
P. aeruginosa strains; strain CFS 1558 (PA20)
  FICI value (Run #1), with meropenem: 0.1562
  FICI value (Run #2), with meropenem: 0.177
P. aeruginosa strains; strain CFS 1559 (PA21)
  FICI value (Run #2), with meropenem: 0.177
P. aeruginosa strains; strain CFS 1560 (PA22)
  FICI value (Run #2), with meropenem: 0.323
P. aeruginosa strains; strain CFS 1561 (PA23)
  FICI value (Run #2), with meropenem: 0.240
P. aeruginosa strains; strain CFS 1562 (PA24)
  FICI value (Run #2), with meropenem: 0.177
P. aeruginosa strains; strain CFS 1766 (ATCC 27853)
  FICI value (Run #2), with meropenem: 0.109
[4]
  MIC in 25% CAA: 1 µg/mL
[5]; 10 μg/mL, enumerated lysins in CAA/HuS, general statement for HEPES and CAA/HuS
  bactericidal activity (CFU decrease of 3-Log10, 3 hours after the addition of lysin): bactericidal activity
[5]; CAA + 25% human serum, lysin 10 μg/ml, 1 hr, WC-453
  CAA/HuS (Log10 CFU/mL), 1 hr: 4.6 Log10 CFU/mL
[5]; CAA + 25% human serum, lysin 10 μg/ml, 3 hr, WC-453
  CAA/HuS (Log10 CFU/mL), 3 hr: <3.7 Log10 CFU/mL
[6]
  MBEC in CAA supplemented with […] human serum: 0.5 µg/mL
[7]; 5 minutes
  % RFU: 381 % RFU
[7]; 10 minutes
  % RFU: 406 % RFU
[7]; 20 minutes
  % RFU: 407 % RFU
[7]; 40 minutes
  % RFU: 386 % RFU
[7]; 60 minutes
  % RFU: 383 % RFU
[7]; 100 minutes
  % RFU: 338 % RFU
